{
  "source": "patent US20240325557A1",
  "about": "(INNATE PHARMA, published 2024)",
  "key": {"[1]": {"target": "T1, huNectin4-C1C2-V5 (C1C2 construct, lacking the Ig-like V domain) (human, UniProt Q96NY8 148-510)", "T1 construct": "Expressed on CHO cells; also called Hu-Nectin4 IgC1C2-V5; Nectin4-C1C2-V5 sorted cells", "T1 sequence": "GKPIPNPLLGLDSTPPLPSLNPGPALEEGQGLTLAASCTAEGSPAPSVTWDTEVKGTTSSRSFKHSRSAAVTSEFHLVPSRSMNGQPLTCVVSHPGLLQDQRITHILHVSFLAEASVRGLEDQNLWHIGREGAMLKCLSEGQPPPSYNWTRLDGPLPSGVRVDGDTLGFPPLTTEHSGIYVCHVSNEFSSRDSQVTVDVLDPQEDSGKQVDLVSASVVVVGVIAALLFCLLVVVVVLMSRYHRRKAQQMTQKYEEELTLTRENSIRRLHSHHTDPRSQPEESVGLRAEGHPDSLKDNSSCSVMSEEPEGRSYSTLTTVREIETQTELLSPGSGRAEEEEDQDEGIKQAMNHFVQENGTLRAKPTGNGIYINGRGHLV", "assay": "flow cytometry on Nectin4-C1C2-V5 sorted cells"}, "human PVR on CHO cells": {"target": "T2, human PVR on CHO cells (human, UniProt P15151 28-417)", "T2 construct": "also called PVR (Nectin-5)", "T2 sequence": "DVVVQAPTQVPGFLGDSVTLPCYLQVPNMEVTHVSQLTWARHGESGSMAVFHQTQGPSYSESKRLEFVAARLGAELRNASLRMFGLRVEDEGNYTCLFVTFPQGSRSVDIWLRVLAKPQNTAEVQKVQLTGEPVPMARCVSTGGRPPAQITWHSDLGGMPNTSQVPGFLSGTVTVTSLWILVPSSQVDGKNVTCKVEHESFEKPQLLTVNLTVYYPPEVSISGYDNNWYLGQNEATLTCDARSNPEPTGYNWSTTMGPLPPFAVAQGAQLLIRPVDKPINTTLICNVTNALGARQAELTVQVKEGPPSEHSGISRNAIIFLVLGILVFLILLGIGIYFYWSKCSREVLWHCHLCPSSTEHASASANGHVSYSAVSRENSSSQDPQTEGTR", "assay": "flow cytometry on CHO cells expressing human PVR", "procedure": "Anti-Nectin-4 antibodies were tested by flow cytometry for binding to different CHO cell lines made to express respectively the human Nectin 1, Nectin 2, Nectin 3 and PVR proteins. The expression of each cell lines was controlled and validated with known respectively the anti-human Nectin1, anti-human Nectin2, anti-human Nectin3 and anti-human PVR antibodies. The mature amino acid sequence of the proteins expressed by the cells were as follows:\nNectin 1, Nectin 2, Nectin 3 and PVR proteins as in Example 12. […] Epitope mapping was carried out by assessing competition for binding to Nectin-4 by SPR as in Example 14."}},
  "data": [
    {"binder": "antibody 6A7 (antibody, human IgG1, V domains shown, also called CHG1-M-4N4-6A7) VH: QVQLKESGAELVKPGASVKLSCKASGYTFTSYWMHWVKQRPGHGLEWVGEIDPSDSYTNYNQKFKGKATLTIDKSSSTVYMQLSSLTSEDSAVYYCARSGNYDAMDYWGQGTSVTVSA VL: DIVMTQAAFSSAVTLGTSASISCRSSKSLLHSNGITYLYWYLQKPGQSPHFLIYQMSNLASGVPDRFTSSGSGTDFTLRISRVEAEDVGVYYCAQNLELPWTFGGGTKLEIK", "values": [
      {"measurement": "binding result", "setting": "[1]", "result": "binds"},
      {"measurement": "binding result", "setting": "human PVR on CHO cells", "result": "no binding"}
    ]}
  ]
}
